US20260209386A1 (MYTHIC THERAPEUTICS, published 2026)

T1: Human PTK7 (human, UniProt Q13308 31-1070)
T1 sequence: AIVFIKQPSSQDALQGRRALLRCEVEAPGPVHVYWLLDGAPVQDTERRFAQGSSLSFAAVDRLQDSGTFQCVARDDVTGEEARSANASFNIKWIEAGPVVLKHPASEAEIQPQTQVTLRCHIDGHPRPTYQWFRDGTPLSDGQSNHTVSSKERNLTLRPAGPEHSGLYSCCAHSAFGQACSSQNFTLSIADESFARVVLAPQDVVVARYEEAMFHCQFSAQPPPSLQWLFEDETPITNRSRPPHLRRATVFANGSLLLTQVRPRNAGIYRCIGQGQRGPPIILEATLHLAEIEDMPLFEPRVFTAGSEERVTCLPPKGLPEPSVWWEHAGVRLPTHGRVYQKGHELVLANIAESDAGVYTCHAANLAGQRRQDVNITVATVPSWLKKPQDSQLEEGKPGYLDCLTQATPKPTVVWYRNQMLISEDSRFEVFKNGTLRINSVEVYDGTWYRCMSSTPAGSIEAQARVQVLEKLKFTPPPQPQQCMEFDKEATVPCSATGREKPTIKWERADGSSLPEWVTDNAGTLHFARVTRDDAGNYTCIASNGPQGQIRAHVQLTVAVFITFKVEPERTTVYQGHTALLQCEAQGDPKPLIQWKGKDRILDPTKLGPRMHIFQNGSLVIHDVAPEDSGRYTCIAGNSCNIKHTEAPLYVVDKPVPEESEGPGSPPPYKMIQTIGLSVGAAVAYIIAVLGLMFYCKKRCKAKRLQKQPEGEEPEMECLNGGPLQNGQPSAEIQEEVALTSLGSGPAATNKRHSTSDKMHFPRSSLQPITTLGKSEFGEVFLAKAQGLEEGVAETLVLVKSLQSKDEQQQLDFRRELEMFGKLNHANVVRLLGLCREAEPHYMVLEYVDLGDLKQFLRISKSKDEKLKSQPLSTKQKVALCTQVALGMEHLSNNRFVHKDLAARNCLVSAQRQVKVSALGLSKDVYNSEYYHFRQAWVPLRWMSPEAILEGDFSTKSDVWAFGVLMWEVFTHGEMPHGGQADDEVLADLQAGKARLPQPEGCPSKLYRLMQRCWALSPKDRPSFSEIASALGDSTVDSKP

B1: MYT11142 (antibody, V domains shown)
VH: EVQLVESGGGLVQPGGSLRLSCTASGFSLSTYAMSWVRQAPGKGLEWVGMIYINDNTYYASWAKGRFTISRDTSKNTVYLQMNSLRAEDTAVYYCARDIGISYYIGVSLWGQGTLVTVSS
VL: EIVMTQSPSTLSASVGDRVIITCQASQSIGTRLSWYQQKPGKAPKLLIYGASKLATGVPSRFSGSGSGAEFTLTISSLQPDDFATYYCLGEYSYTTTDGIAFGQGTKLTVL
B2: MYT11143 (antibody, V domains shown)
VH: EVQLVESGGGLVQPGGSLRLSCTASGFSLSTYAMSWVRQAPGKGLEWVGMIYINANTYYASWAKGRFTISRDTSKNTVYLQMNSLRAEDTAVYFCARDIGISYYIGVSLWGQGTLVTVSS
VL: EIVMTQSPSTLSASVGDRVIITCQASQSIGTRLSWYQQKPGKAPKLLIYGASKLATGVPSRFSGSGSGAEFTLTISSLQPDDFATYYCLGEYSYTTTDGIAFGQGTKLTVL
B3: MYT11190 (antibody, V domains shown)
VH: EVQLVESGGGLVQPGGSLRLSCTASGIDLSSYVMGWVRQAPGKGLEWVGHIYGGGGTYYATWARGRFTISRDTSKNTVYLQMNSLRAEDTAVYFCARAAADFYFNLWGQGTLVTVSS
VL: EIVMTQSPSTLSASVGDRVIITCQASQSISSYLAWYQQKPGKAPKLLIYDISDLASGVPSRFSGSGSGAEFTLTISSLQPDDFATYYCQSYYWISNSGAAFGQGTKLTVL
B4: MYT11212 (antibody, V domains shown)
VH: EVQLVESGGGLVQPGGSLRLSCTASGIDLSSYVMGWVRQAPGKGLEWVGYIYGGGGTYYATWARGRFTISRDTSKNTVYLQMNSLRAEDTAVYFCARAAADHYFNLWGQGTLVTVSS
VL: EIVMTQSPSTLSASVGDRVIITCQASQSISSYLAWYQQKPGKAPKLLIYDISDLASGVPSRFSGSGSGAEFTLTISSLQPDDFATYYCQSYYWISNSGAAFGQGTKLTVL
B5: MYT11232 (antibody, V domains shown)
VH: EVQLVESGGGLVQPGGSLRLSCTASGIDLSSYVMGWVRQAPGKGLEWVGYIYGGGGTYYATWARGRFTISRDTSKNTVYLQMNSLRAEDTAVYFCARAAADFYFNLWGQGTLVTVSS
VL: EIVMTQSPSTLSASVGDRVIITCQASQSISSYLAWYQQKPGKAPKLLIYDHSDLASGVPSRFSGSGSGAEFTLTISSLQPDDFATYYCQSYYWISNSGAAFGQGTKLTVL
B6: MYT11211 (antibody, V domains shown)
VH: EVQLVESGGGLVQPGGSLRLSCTASGIDLSSYVMGWVRQAPGKGLEWVGYIYGGGGTYYATWARGRFTISRDTSKNTVYLQMNSLRAEDTAVYFCARAAAHFYFNLWGQGTLVTVSS
VL: EIVMTQSPSTLSASVGDRVIITCQASQSISSYLAWYQQKPGKAPKLLIYDISDLASGVPSRFSGSGSGAEFTLTISSLQPDDFATYYCQSYYWISNSGAAFGQGTKLTVL
B7: MYT11257 (antibody, V domains shown)
VH: EVQLVESGGGLVQPGGSLRLSCTASGIDHSRYSMGWVRQAPGKGLEWVGIISYGGSTYYASWAKGRFTISRDTSKNTVYLQMNSLRAEDTAVYFCARVGYPGYSGYGYAFDAFDPWGQGTLVTVSS
VL: EIVMTQSPSTLSASVGDRVIITCQSSKSVYNDNWLSWYQQKPGKAPKLLIYGASTLASGVPSRFSGSGSGAEFTLTISSLQPDDFATYYCAGGYSSSSDNGFGQGTKLTVL
B8: MYT11287 (antibody, V domains shown)
VH: EVQLVESGGGLVQPGGSLRLSCTASGIDLSRYSMGWVRQAPGKGLEWVGIISYGGSTYYASWAKGRFTISRDTSKNTVYLQMNSLRAEDTAVYFCARVGYPGHSGYGYAFDAFDPWGQGTLVTVSS
VL: EIVMTQSPSTLSASVGDRVIITCQSSKSVYNDNWLSWYQQKPGKAPKLLIYGASTLASGVPSRFSGSGSGAEFTLTISSLQPDDFATYYCAGGYSSSSDNGFGQGTKLTVL
B9: MYT11271 (antibody, V domains shown)
VH: EVQLVESGGGLVQPGGSLRLSCTASGIDLSRYSMGWVRQAPGKGLEWVGIISYGGSHYYASWAKGRFTISRDTSKNTVYLQMNSLRAEDTAVYFCARVGYPGYSGYGYAFDAFDPWGQGTLVTVSS
VL: EIVMTQSPSTLSASVGDRVIITCQSSKSVYNDNWLSWYQQKPGKAPKLLIYGASTLASGVPSRFSGSGSGAEFTLTISSLQPDDFATYYCAGGYSSSSDNGFGQGTKLTVL
B10: MYT11281 (antibody, V domains shown)
VH: EVQLVESGGGLVQPGGSLRLSCTASGIDLSRYSMGWVRQAPGKGLEWVGIISYGGSTYYASWAKGRFTISRDTSKNTVYLQMNSLRAEDTAVYFCAHVGYPGYSGYGYAFDAFDPWGQGTLVTVSS
VL: EIVMTQSPSTLSASVGDRVIITCQSSKSVYNDNWLSWYQQKPGKAPKLLIYGASTLASGVPSRFSGSGSGAEFTLTISSLQPDDFATYYCAGGYSSSSDNGFGQGTKLTVL
B11: MYT11282 (antibody, V domains shown)
VH: EVQLVESGGGLVQPGGSLRLSCTASGIDLSRYSMGWVRQAPGKGLEWVGIISYGGSTYYASWAKGRFTISRDTSKNTVYLQMNSLRAEDTAVYFCARHGYPGYSGYGYAFDAFDPWGQGTLVTVSS
VL: EIVMTQSPSTLSASVGDRVIITCQSSKSVYNDNWLSWYQQKPGKAPKLLIYGASTLASGVPSRFSGSGSGAEFTLTISSLQPDDFATYYCAGGYSSSSDNGFGQGTKLTVL
B12: MYT11284 (antibody, V domains shown)
VH: EVQLVESGGGLVQPGGSLRLSCTASGIDLSRYSMGWVRQAPGKGLEWVGIISYGGSTYYASWAKGRFTISRDTSKNTVYLQMNSLRAEDTAVYFCARVGHPGYSGYGYAFDAFDPWGQGTLVTVSS
VL: EIVMTQSPSTLSASVGDRVIITCQSSKSVYNDNWLSWYQQKPGKAPKLLIYGASTLASGVPSRFSGSGSGAEFTLTISSLQPDDFATYYCAGGYSSSSDNGFGQGTKLTVL
B13: MYT11280 (antibody, V domains shown)
VH: EVQLVESGGGLVQPGGSLRLSCTASGIDLSRYSMGWVRQAPGKGLEWVGIISYGGSTYYASWAKGRFTISRDTSKNTVYLQMNSLRAEDTAVYFCHRVGYPGYSGYGYAFDAFDPWGQGTLVTVSS
VL: EIVMTQSPSTLSASVGDRVIITCQSSKSVYNDNWLSWYQQKPGKAPKLLIYGASTLASGVPSRFSGSGSGAEFTLTISSLQPDDFATYYCAGGYSSSSDNGFGQGTKLTVL
B14: MYT11291 (antibody, V domains shown)
VH: EVQLVESGGGLVQPGGSLRLSCTASGIDLSRYSMGWVRQAPGKGLEWVGIISYGGSTYYASWAKGRFTISRDTSKNTVYLQMNSLRAEDTAVYFCARVGYPGYSGYHYAFDAFDPWGQGTLVTVSS
VL: EIVMTQSPSTLSASVGDRVIITCQSSKSVYNDNWLSWYQQKPGKAPKLLIYGASTLASGVPSRFSGSGSGAEFTLTISSLQPDDFATYYCAGGYSSSSDNGFGQGTKLTVL
B15: MYT11261 (antibody, V domains shown)
VH: EVQLVESGGGLVQPGGSLRLSCTASGIDLSRYHMGWVRQAPGKGLEWVGIISYGGSTYYASWAKGRFTISRDTSKNTVYLQMNSLRAEDTAVYFCARVGYPGYSGYGYAFDAFDPWGQGTLVTVSS
VL: EIVMTQSPSTLSASVGDRVIITCQSSKSVYNDNWLSWYQQKPGKAPKLLIYGASTLASGVPSRFSGSGSGAEFTLTISSLQPDDFATYYCAGGYSSSSDNGFGQGTKLTVL
B16: MYT11264 (antibody, V domains shown)
VH: EVQLVESGGGLVQPGGSLRLSCTASGIDLSRYSMGWVRQAPGKGLEWVGHISYGGSTYYASWAKGRFTISRDTSKNTVYLQMNSLRAEDTAVYFCARVGYPGYSGYGYAFDAFDPWGQGTLVTVSS
VL: EIVMTQSPSTLSASVGDRVIITCQSSKSVYNDNWLSWYQQKPGKAPKLLIYGASTLASGVPSRFSGSGSGAEFTLTISSLQPDDFATYYCAGGYSSSSDNGFGQGTKLTVL
B17: MYT11259 (antibody, V domains shown)
VH: EVQLVESGGGLVQPGGSLRLSCTASGIDLSHYSMGWVRQAPGKGLEWVGIISYGGSTYYASWAKGRFTISRDTSKNTVYLQMNSLRAEDTAVYFCARVGYPGYSGYGYAFDAFDPWGQGTLVTVSS
VL: EIVMTQSPSTLSASVGDRVIITCQSSKSVYNDNWLSWYQQKPGKAPKLLIYGASTLASGVPSRFSGSGSGAEFTLTISSLQPDDFATYYCAGGYSSSSDNGFGQGTKLTVL

Target: T1, Human PTK7
Experiment: cell-based or functional assay

Internalization, FOW @ 25 nM (fold over the wildtype, parental antibody)	Binder
1.29 fold over parental antibody	B1
1.61 fold over parental antibody	B2
1.32 fold over parental antibody	B3
1.23 fold over parental antibody	B4
1.15 fold over parental antibody	B5
1.14 fold over parental antibody	B6
1.11 fold over parental antibody	B7
1.71 fold over parental antibody	B8
1.57 fold over parental antibody	B9
1.11 fold over parental antibody	B10
1.68 fold over parental antibody	B11
1.51 fold over parental antibody	B12
1.16 fold over parental antibody	B13
1.53 fold over parental antibody	B14
1.24 fold over parental antibody	B15
1.13 fold over parental antibody	B16
1.14 fold over parental antibody	B17
